One data set concerns the target WT-mcGAScat (mouse, UniProt Q8C6L5 147-507). Kind of data set: crystal structure; 2'-dATP; FA: 5 nM FAM-dsDNA, as previously reported (reaction buffer likely 25 mM Tris-acetate pH 7.4, 125 mM KAc, 5 mM MgAc2, 1 mM TCEP, 5% glycerol, 25 C); crystals: 0.2 M ammonium acetate, 32% MPD, 0.1 M Bis-Tris pH 6.5, 4 C. To be noted: protein: recombinant; tags: none left (N-terminal 6xHis-MBP removed by TEV); chain copies: 2; blunt; self-complementary, 2 copies of the strand.

In the next data set the target is QN-mcGAScat (mouse, UniProt Q8C6L5 147-507, E211Q;D213N). Kind of data set: crystal structure; ATP, GTP, Mg2+; FA: 5 nM FAM-dsDNA, as previously reported (reaction buffer likely 25 mM Tris-acetate pH 7.4, 125 mM KAc, 5 mM MgAc2, 1 mM TCEP, 5% glycerol, 25 C); crystals: 0.2 M ammonium acetate, 32% MPD, 0.1 M Bis-Tris pH 6.5, 4 C. The settings on record: protein: recombinant; tags: none left (N-terminal 6xHis-MBP removed by TEV); chain copies: 2; blunt; self-complementary, 2 copies of the strand.
Sequence of QN-mcGAScat (Q8C6L5 147-507 E211Q/D213N): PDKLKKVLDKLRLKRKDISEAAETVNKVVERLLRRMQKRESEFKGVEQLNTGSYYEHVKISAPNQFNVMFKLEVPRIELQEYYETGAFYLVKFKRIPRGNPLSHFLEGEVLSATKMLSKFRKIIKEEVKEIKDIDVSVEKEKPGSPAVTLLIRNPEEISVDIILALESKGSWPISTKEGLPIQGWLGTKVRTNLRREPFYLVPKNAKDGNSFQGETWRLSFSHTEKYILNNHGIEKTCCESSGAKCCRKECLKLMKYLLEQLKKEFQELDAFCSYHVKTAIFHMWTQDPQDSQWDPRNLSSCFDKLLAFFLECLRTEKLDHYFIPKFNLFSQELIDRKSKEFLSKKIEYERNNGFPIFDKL

Sequence of WT-mcGAScat (Q8C6L5 147-507): as the sequence (Q8C6L5 147-507 E211Q/D213N) above, with Q65E, N67D counted along it

B1: 18-bp palindromic dsDNA (dsDNA)
DNA 1: ATCTGTACATGTACAGAT
DNA 2: ATCTGTACATGTACAGAT
On to B1, for which the binding result with WT-mcGAScat and in the data set with QN-mcGAScat was “binds” each time.

Source of the values: publication PMC11091121, “The structural basis for 2′−5′/3′−5′-cGAMP synthesis by cGAS”.
